Experimental findings from patent US20260274959A1 (FUJIAN MEDICAL UNIVERSITY, published 2026) are described below.

The target in test [1] is T1, mouse B7-H4 on cells (MC38-mH4 and E.G7-OVA-mH4 overexpressing) (mouse, UniProt Q7TSP5 25-257).
T1 construct: whole, on cells; The species of the overexpressed protein is read from the label mH4
T1 sequence (looked up): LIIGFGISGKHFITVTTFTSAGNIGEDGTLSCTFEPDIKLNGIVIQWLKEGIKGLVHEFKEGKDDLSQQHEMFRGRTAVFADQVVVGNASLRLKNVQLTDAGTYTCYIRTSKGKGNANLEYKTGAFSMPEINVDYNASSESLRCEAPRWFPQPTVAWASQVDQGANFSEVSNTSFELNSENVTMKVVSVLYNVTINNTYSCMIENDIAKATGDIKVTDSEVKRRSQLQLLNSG
In words: flow cytometry on MC38-mH4 cells. The method, then:
(1) Resuspension of cells: After trypsin digestion, cells were centrifuged, the supernatant was discarded, and the cells were resuspended in PBS containing 1% (v/v) FBS and counted to adjust the concentration to 2×10⁶ cells/mL. [0126] (2) Setting controls: For a blank control, an isotype control, and samples to be tested, 100 μL of the resuspended cells in step (1) was added to each tube, so that each tube contains 2×10⁵ cells. [0127] […] A negative control tube was added with 50 μL of negative single-chain antibody, which was the monoclonal single-chain antibody that was negative in ELISA in Example 3. Tubes to be tested were respectively added with 50 μL of antibody candidates (i.e., Npsc-A8, Npsc-E7, Npsc-G10). The mixture in tubes was fully mixed, and incubated at 4° C. for 30 mins. During the incubation, the tubes were shaken every 10 mins to allow the cells to be fully reacted with the antibodies. [0128] (4) Washing of cells: An appropriate amount of PBS containing 1% (v/v) FBS was added to each tube. The tubes were centrifuged at 2000 rpm for 3 mins, and the supernatant was discarded. [0129] (5) Resuspension of cells: The cells in each tube were resuspended in 100 μL of PBS containing 1% FBS. [0130] […]
For orientation: In flow cytometry, cells or beads pass a laser one at a time.

Test [2] concerns the target T2, Human B7-H4 protein (Sino Biological, Cat #10738-H08H-100) (human, UniProt Q7Z7D3 25-258).
T2 construct: Bought protein; also called hB7-H4 protein
T2 sequence: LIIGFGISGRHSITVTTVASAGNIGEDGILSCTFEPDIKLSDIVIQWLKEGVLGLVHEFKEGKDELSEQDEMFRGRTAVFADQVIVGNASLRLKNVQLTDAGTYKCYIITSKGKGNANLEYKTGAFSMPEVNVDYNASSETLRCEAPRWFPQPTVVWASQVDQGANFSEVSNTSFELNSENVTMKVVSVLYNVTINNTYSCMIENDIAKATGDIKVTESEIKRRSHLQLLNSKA
Kind of test: ELISA, human B7-H4 protein coated at 2 µg/mL, scFv titrated from 20 to 0.05 µg/mL. The method, then:
4.2 Measurement of Affinity of the Npsc-A8 scFv [0142] (1) ELISA plate was placed in a clean bench, and activated under UV irradiation for more than 30 mins. Human B7-H4 protein (Sinobiological, a catalog number: 10738-HO8H-100) was coated onto wells of the ELISA plate overnight at 4° C. at 2 μg/mL. The Npsc-A8 single-chain antibody was diluted to 20 μg/mL, 10 μg/mL, 7.5 μg/mL, 5 μg/mL, 2.5 μg/mL, 1 μg/mL, 0.5 μg/mL, 0.25 μg/mL, 0.1 μg/mL, and 0.05 μg/mL, which were respectively added to wells in 100 μL per well. [0143] (2) The remaining steps were conducted according to steps (7) to (14) in Example 3. [0144] (3) The OD450 nm value was measured. A standard curve was plotted, and the EC₅₀ value was obtained.
In general terms: ELISA stands for enzyme-linked immunosorbent assay.

Test [3] has as its target T3, mouse B7-H4 IgC-like domain protein (from a laboratory of Fujian Medical University) (mouse, UniProt Q7TSP5 153-241, limits assumed).
T3 construct: domain: IgC-like domain
T3 sequence (looked up): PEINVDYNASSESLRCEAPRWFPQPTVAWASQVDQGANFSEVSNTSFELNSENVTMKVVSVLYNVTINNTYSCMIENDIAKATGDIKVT
In words: ELISA, protein coated at 2 µg/mL. As for the experimental part: (1) A 96-well ELISA plate was placed in a clean bench, and activated under UV irradiation for more than 30 mins. The human B7-H4 protein (Sinobiological, a catalog number: 10738-HO8H-100), mouse B7-H4 protein (from a laboratory of Fujian Medical University), mouse B7-H4 IgV-like domain protein (from a laboratory of Fujian Medical University), and mouse B7-H4 IgC-like domain protein (from a laboratory of Fujian Medical University) were respectively coated onto wells of the 96-well ELISA plate at a concentration of 2 μg/mL, and incubated at 4° C. overnight. The Npsc-A8 full-length antibody protein obtained in Example 5 was diluted to 10 μg/mL with PBS buffer, and added to wells in 100 μL per well. [0165] (2) The remaining steps were conducted according to steps (6) to (13) in Example 3. 6H3 and 8H4 were used as control antibodies. 6H3 is a mouse anti-human B7-H4 IgC domain antibody, referring to patent application publication number CN 104955475 A. 8H4 is a hamster anti-human B7-H4 IgV domain antibody, referring to DOI: 10.1016/s1074-7613 (03) 00152-3. [0166] (3) OD450 nm value was measured.

In test [4] the target is T1, mouse B7-H4 on cells (MC38-mH4 and …). In words: flow cytometry on MC38-mH4 and E.G7-OVA-mH4 cells; the filing adds that at the same concentration it binds human tumor cells at a higher affinity than mouse tumor cells. As for the experimental part:
A negative control tube was added with 50 μL of negative single-chain antibody, which was the monoclonal single-chain antibody that was negative in ELISA in Example 3. Tubes to be tested were respectively added with 50 μL of antibody candidates (i.e., Npsc-A8, Npsc-E7, Npsc-G10). The mixture in tubes was fully mixed, and incubated at 4° C. for 30 mins. During the incubation, the tubes were shaken every 10 mins to allow the cells to be fully reacted with the antibodies. [0128] (4) Washing of cells: An appropriate amount of PBS containing 1% (v/v) FBS was added to each tube. The tubes were centrifuged at 2000 rpm for 3 mins, and the supernatant was discarded. [0129] (5) Resuspension of cells: The cells in each tube were resuspended in 100 μL of PBS containing 1% FBS. [0130] (6) Incubation with secondary antibody: An appropriate amount of fluorescently labeled secondary antibody was added to the isotype control tube and the test tubes, mixed thoroughly, and incubated at 4° C. in the dark for 30 mins. During the incubation, the tubes were shaken every 10 mins. [0131] (7) Washing of cells: 2 mL PBS was added to each tube, the tubes were centrifuged at 2000 rpm for 3 mins, and the supernatant was discarded. This process was conducted twice. [0132] (8) On-machine testing: Cells in each tube were resuspended in 200 μL PBS. […]

B1: Npsc-A8 single-chain antibody (scFv, V domains shown)
VH: QVQLQESGGGLMQVGGSLRLSCTASGFVFGDYGMNWVRQAPGKGLEWVSLIDTYGASTFYADSVKGRFTISRDNSKQTVFLQMDGLRADDTAMYFCAKPILMFPAFDLWGPGTMVTVSS
VL: DVVMTQSPSSLSASVGDRVTITCRASQGIRNDLAWYQKKPGKAPKRLIYAASSLQSGVPSRFSGSGYGAEFSLTISSLQPEDFATYFCLHHSQYPWTFGQGTKVDIK
notes: Soluble scFv from a phage display human natural scFv library; also called Npsc-A8 scFv; not shown: The scFv linker between the two variable domains, the domain order, and the tag detected with the anti-HA-tag antibody
For the molecule B1, in test [1], the binding result was “binds”. In test [2], this molecule displayed an EC50 of 2.02 µg/mL.

B2: Npsc-A8 full-length antibody (antibody, V domains shown)
VH: QVQLQESGGGLMQVGGSLRLSCTASGFVFGDYGMNWVRQAPGKGLEWVSLIDTYGASTFYADSVKGRFTISRDNSKQTVFLQMDGLRADDTAMYFCAKPILMFPAFDLWGPGTMVTVSS
VL: DVVMTQSPSSLSASVGDRVTITCRASQGIRNDLAWYQKKPGKAPKRLIYAASSLQSGVPSRFSGSGYGAEFSLTISSLQPEDFATYFCLHHSQYPWTFGQGTKVDIKR
notes: also called Npsc-A8 antibody
As to B2, the binding result in test [3] is listed as “no binding (tested: 10 µg/mL)”; in test [4], “binds”.

As usually defined, the EC50 is the concentration needed to bring the measured effect to its halfway point. A high value points to lower potency in that assay.
